Measured values as given in patent US20240067720A1 (SHANGHAI JUNSHI BIOSCIENCES, published 2024).

Target: T1, hTIGIT expressed on Jurkat reporter cells (hTIGIT/NFAT-luciferase) (human, UniProt Q495A1 22-244)
T1 sequence (looked up): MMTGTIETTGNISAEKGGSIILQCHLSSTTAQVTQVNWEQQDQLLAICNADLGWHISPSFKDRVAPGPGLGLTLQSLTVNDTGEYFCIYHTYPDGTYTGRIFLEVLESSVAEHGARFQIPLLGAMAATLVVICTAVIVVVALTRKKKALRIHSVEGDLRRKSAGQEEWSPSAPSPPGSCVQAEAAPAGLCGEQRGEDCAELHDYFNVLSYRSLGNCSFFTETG
Assay: cell-based or functional assay

B1: humanized anti-TIGIT monoclonal antibody hu20 (antibody, human IgG4 S228P, kappa, V domains shown)
VH: QVQLVQSGAEVKKPGASVKVSCKTSGYAFTEYTMHWVRQAPGKGLEWMGGINPNTGGTTYNQKFQGRVTLTVDKSSSTAYMELSSLRSEDTVVYYCAKLLRLMYYFDYWGQGTLVTVSS
VL: DIQMTQSPSSLSASVGDRVTITCQASQDVRTAVAWYQQKPGKAPKLLIYSASYRYTGVPSRFSGSGSGTDFTFTISSLQPEDIATYYCHQHYITPWTFGGGTKVEIKR
EC50 of T cell activation; luminescence of Jurkat hTIGIT/NFAT-luciferase reporter cells co-cultured with CHO cells expressing hPVRL2: 0.0424 µg/mL
